# Data: patent publication US20160272995A1, “MANIPULATION OF PLASMODESMAL CONNECTIVITY TO IMPROVE PLANT YIELD AND FITNESS” (UNIVERSITY OF DELAWARE, priority 2013, published 2016)
# Substitutions are numbered along the chain they refer to.
# B1: PDLP5-CC: PDLP5 mutant altering two cysteines (residues 288 and 289 of the C-terminal tail) to Ala (protein, UniProt Q8GUJ2 26-299, looked up, variant C288A C289A)
# Plasmodesmata-located protein …: SPTDNYIYAVCSPAKFSPSSGYETNLNSLLSSFVTSTAQTRYANFTVPTGKPEPTVTVYGIYQCRGDLDPTACSTCVSSAVAQVGALCSNSYSGFLQMENCLIRYDNKSFLGVQDKTLILNKCGQPMEFNDQDALTKASDVIGSLGTGDGSYRTGGNGNVQGVAQCSGDLSTSQCQDCLSDAIGRLKSDCGMAQGGYVYLSKCYARFSVGGSHARQTPGPNFGHEGEKGNKDDNGVGKTLAIIIGIVTLIILLVVFLAFVGKAARKLQDEKWCK
# B2: PDLP5-C: PDLP5 mutant altering a single cysteine (residue 298 of the C-terminal tail) to Ala (protein, UniProt Q8GUJ2 26-299, looked up, variant C298A)
# Plasmodesmata-located protein …: B1 Plasmodesmata-located protein … with A263C, A264C, C273A
# B3: PDLP5-m5: PDLP5 mutant (SEQ ID NO:6) with three Cysteine→Alanine mutations at 288, 289, 298; expressed in transgenic plants under 35S promoter (protein)
# chain: MIKTKTTSLLCFLLTAVILMNPSSSSPTDNYIYAVCSPAKFSPSSGYETNLNSLLSSFVTSTAQTRYANFTVPTGKPEPTVTVYGIYQCRGDLDPTACSTCVSSAVAQVGALCSNSYSGFLQMENCLIRYDNKSFLGVQDKTLILNKCGQPMEFNDQDALTKASDVIGSLGTGDGSYRTGGNGNVQGVAQCSGDLSTSQCQDCLSDAIGRLKSDCGMAQGGYVYLSKCYARFSVGGSHARQTPGPNFGHEGEKGNKDDNGVGKTLAIIIGIVTLIILLVVFLAFVGKAARKLQDEKWAK
# modifications: modified PDLP5 protein
# notes: expressed in transgenic plants under 35S promoter
# Experiments:
# PDLP5pro:GUS = test: Hormone treatment of PDLP5pro:GUS seedlings, GUS staining of roots; type: in vivo, Arabidopsis thaliana; conditions: 7-day-old seedlings, 9 hours; NAA 100 nM, SA 100 μM, JA 50 μM, ABA 10 μM, 6-BAP 1 μM
# Source text: (A) GUS staining of napthalene acetic acid (NAA)-treated roots. Images are tiled and manually aligned. Scale bars, 50 μm. (B) Model for the possible role of PDLP5 during lateral root (LR) emergence. In the wild type (WT) plant, auxin-triggered PDLP5 limits excess diffusion of auxin through PD. This helps regulate the expression timing of genes encoding LAX3 and CWR enzymes in the cortex that positively influence LR emergence. In the plant having a severe knock-down in PDLP5 (pdlp5-1), auxin can diffuse through PD into cortical (and later, epidermal) cells earlier than it should. En, endodermis; Co, cortex; Ep, epidermis This expedites the expression of emergence-promoting genes, accelerating LR emergence.
# Concentrations: salicylic acid (SA), 100 μM; JA, 50 μM; ABA, 10 μM; 6-BAP, 1 μM. n=10 per treatment for each line. Representative images are shown. Scale bar, 100 μm.
# (§1) To further test that PDLP5pro responds to auxin, we treated 7-day-old PDLP5pro:GUS seedlings with the auxin analog 1-napthalene acetic acid (NAA). […] However, whereas DR5:GUS staining was intensified at the root meristem, exogenous auxin-induced PDLP5pro:GUS expression was again completely excluded from the root tip (FIG. 24).
# GUS solution (100 mM sodium phosphate buffer, pH 7.0, 10 mM EDTA, 0.5 mM each potassium ferrocyanide and potassium ferricyanide, 1.24 mM X-Gluc, and 0.1% Triton X-100) was vacuum-infiltrated into plant tissue for five minutes, then removed from vacuum and incubated in 37° C. for 3 to 12 hrs, followed by a series of ethanol washes. Stained tissues were imaged using Zeiss Axioskop 2 microscope. LRP were quantified by counting both the emerged LR and unemerged LR, as determined by DRS::GUS staining of the primordia, under a dissecting microscope (1.2× magnification). LRP stages were determined by examining ethanol-cleared, GUS-stained tissue using 40× water lens.
# PDLP5 = test: RT-PCR of PDLP5 transcript in roots after hormone treatment; type: in vivo, Arabidopsis thaliana; conditions: nine-day-old seedlings, 4 hours; 100 μM SA, 5 μM NAA
# Experimental: Relative band intensity was quantified with Image-J and standardized against ubiquitin. Concentrations: 100 μM salicylic acid (SA), 5 μM napthalene acetic acid (NAA). Three biological and two technical repeats were performed.
# as §1
# [1] = system: Nicotiana benthamiana leaves; test: Transient expression via Agrobacteria-infiltration, extent of viral movement; type: in vivo; conditions: transient expression in Nicotiana benthamiana leaves
# Experimental: (a) Schematics of PDLP5-m5, PDLP5-C, and PDLP5-2C mutants as created by overlapping PCR. (b) Transient expression of mutants in Nicotiana benthamiana leaves.
# We also created mutants altering just two cysteines (“CC”, residues 288 and 289 of the C-terminal tail region) or a single cysteine (“C”, residue 298 of the C-terminal tail region) residues to A1a. The phenotypes of these partial mutants, as well as the PDLP5-OX, pldp5-1 and PDLP5-m5, were tested in transient expression in Nicotiana benthamiana leaves via Agrobacteria-infiltration, targeting the extent of viral movement for comparison.
# Arabidopsis thaliana [2] = test: Root length and secondary root growth of PDLP5-m5 plants; type: in vivo; conditions: compared to wild-type plants
# Source text: The sequence of the PCR product was confirmed followed by transformation of Top10 E. coli competent cells. After sequence confirmation, the PDLP5-m5 sequence was transferred from the entry clone pEN-PDLP5-m5 into a binary vector (pGWB) including the constitutive 35S promoter by a Gateway reaction; more particularly, the sequence was cloned into an expression vector under the control of a constitutive 35S promoter to create a pGWB-35S:PDLP5-m5 clone. Agrobacteria were transformed with the pGWB-35S:PDLP5-m5 clone. More particularly, pGWB was introduced into Agrobacteria strain GV3101, and the transformed Agrobacteria were used to transform 4-week-old Arabidopsis thaliana Col-0 plants using floral dipping to produce transgenic plants expressing PDLP5-m5. Transgenic Arabidopsis plants expressing the PDLP5-m5 mutant (pro35S:PDLP5-m5) were made in Col-0 WT and pldp5-1 (severe knockdown) backgrounds.
# Arabidopsis thaliana [3] = test: Drought test: 2 weeks water withdrawal, then rewatering; type: in vivo
# Experimental: All plant lines were grown for 2 weeks with water prior to the 2 week water withdrawal. (a) Plants having a severe knock down of PDLP5 (pdlp5-1) and PDLP5-m5 plants bolt faster than plants overexpressing PDLP5 (OX) and wild type (WT) plants. (b) Plants overexpressing PDLP5 (OX) revive 3 days post rewatering (DPR). (c) Plants overexpressing PDLP5 (OX) fully recover and 10 days post rewatering (DPR); wild type (WT) plants are dead, and PDLP5-m5 plants continue to survive.
# (a) Plants overexpressing PDLP5 (OX), wild type (WT) plants, plants having a severe knock down of PDLP5 (pdlp5-1), and three different PDLP5-m5 plants (T3-4-2, T2-6, and T2-26) which were all grown a different number of days as required to reach same rosette size before water withdrawal. Plants having the same rosette size are referred to as “same day bolting samples.” (b) Same day bolting samples of plants overexpressing PDLP5 (OX), wild type (WT) plants, plants having a severe knock down of PDLP5 (pdlp5-1), and three different PDLP5-m5 plants (T3-4-2, T2-6, and T2-26) at the end of a 2 week water withdrawal. (c) Same day bolting samples of plants overexpressing PDLP5 (OX) and two different PDLP5-m5 plants (T3-4-2 and T2-26) recover fully 3 days post rewatering.
# Transgenic T1 plants were selected on basta+plates and homozygous T2 lines were identified by segregation test on T3 plants. For the drought test, homozygous lines were grown in soil for the 2 weeks with watering followed by 2 weeks of water withdrawal. Tolerance to drought stress of the PDLP5-m5 was assessed by the plant growth or death upon resuming watering.
# PDLP5-m5 plants were evaluated by exposing them to drought conditions. PDLP-m5 plants were grown under normal conditions with water, water was withdrawn for 2 weeks, and rewatering was commenced. Plants having a severe knock down of PDLP5 (pdlp5-1) and PDLP5-m5 plants bolt faster than plants overexpressing PDLP5 and wild type plants (FIG. 13A). […] The early bolting of the PDLP5-m5 plants appeared to affect plant revival. Therefore, the experiment was repeated using same day bolting samples. Briefly, plants having the same rosette size were used, regardless of the number of days required to achieve that rosette size (FIG. 14A).
# Arabidopsis thaliana [4] = test: Exposure to cold conditions (chilling); type: in vivo; conditions: relative to wild type plants and plants overexpressing PDLP5; 7 weeks at 5° C.
# Experimental: Plants were grown to 2 weeks post germination at 20° C. followed by 7 weeks of culture at 5° C. with 16/8 hours light/darkness.
# Arabidopsis thaliana [5] = test: Vegetative growth, flowering and seed yield of plants; type: in vivo
# Experimental: Wild type (WT) plants, plants overexpressing […]), and plants with a severe knock down of […] used as comparisons. (a) Whole plants at 10, 14, and 18 days post germination (dpg). Plants were grown at 22-20° C. with 50% humidity and with 16/8 hours light/darkness. (b) Leaves at 3 weeks post germination. Plants were grown at 24-22° C. with 70% humidity and with 16/8 hours light/darkness. […] Wild type (WT) plants, plants overexpressing PDLP5 (OX), and plants with a severe knock down of PDLP5 (KO) were used as comparisons. […] Seeds were germinated on plates, were transferred to soil after 1 week, and plants were grown at 22-20° C. with 16/8 hours light/darkness. […] Wild type (WT) plants and plants overexpressing […]) were used as comparisons. Plants were grown at 24-22° C. with 70% humidity and with 16/8 hours light/darkness. […] The sequence of the PCR product was confirmed followed by transformation of Top10 E. coli competent cells. […] Agrobacteria were transformed with the […]5 clone.
molecule,measurement,setting,value
CC/C=C\C[C@H]1C(=O)CC[C@@H]1CC(=O)O [JA],PDLP5pro:GUS expression in roots,PDLP5pro:GUS,did not have any effect
cytokinin,PDLP5pro:GUS expression in roots,PDLP5pro:GUS,did not have any effect
CC1=CC(=O)CC(C)(C)C1(O)/C=C/C(C)=C\C(=O)O (centres unmarked) [ABA],PDLP5pro:GUS expression in roots,PDLP5pro:GUS,did not have any effect
"O=C(O)c1ccccc1O [SA, salicylic acid]",PDLP5pro:GUS expression in roots,PDLP5pro:GUS,induces PDLP5pro:GUS expression in roots
same,PDLP5 transcript level in the roots (RT-PCR),PDLP5,Induction of PDLP5 at the transcript level
"O=C(O)Cc1cccc2ccccc12 [NAA, 1-napthalene acetic acid]",PDLP5pro:GUS expression in roots,PDLP5pro:GUS,occurred in the cells above the ectopically induced LRP
same,PDLP5 transcript level in the roots (RT-PCR),PDLP5,Induction of PDLP5 at the transcript level
B1,extent of viral movement,[1],did not show PDLP5-m5 effect
B2,extent of viral movement,[1],did not show PDLP5-m5 effect
B3,total secondary root growth,Arabidopsis thaliana [2],increase in total secondary root growth
same,increase in root length,Arabidopsis thaliana [2]; 10 days post germination,30-40%
same,outcome upon rewatering,Arabidopsis thaliana [3]; rewatering after 2 weeks water withdrawal,continued to grow upon rewatering
same,bolting,Arabidopsis thaliana [3]; versus plants overexpressing PDLP5 and wild type plants,bolt faster
same,response to water withdrawal,Arabidopsis thaliana [3]; water withdrawn for 2 weeks,resistant to water withdrawal
same,resistance to cold conditions,Arabidopsis thaliana [4],improved resistance
same,extent of viral movement,[1],more extensive viral movement
same,rosette diameter,"Arabidopsis thaliana [5]; 22-20° C., 16/8 hours light/darkness",relative rosette diameter is maintained
same,seed yield,Arabidopsis thaliana [5]; compared to wild type and pdlp5-1,normal to better seed yield
same,flowering,Arabidopsis thaliana [5]; compared with WT and PDLP5-OX,early flowering
same,vegetative growth,"Arabidopsis thaliana [5]; compared with WT, PDLP5-OX, pdlp5-1",fast vegetative growth
